Laboratory results: the nanobody polyreactivity screen of Harvey et al. (2022)

assay: yeast display, Sf9 membrane polyspecificity reagent, FACS + sequencing; frameworks hold sequencing errors
Method in brief: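 In a synthetic yeast display library (Saccharomyces cerevisiae BJ5465), nanobody expression was induced with galactose for 36–48 hours. FACS gates were set low and high (top ~1%) using anti-HA fluorescence for expression and streptavidin fluorescence for binding of the Sf9 membrane reagent. Each polyreactivity label is drawn from the gate of origin.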

Sequence	polyreactivity (PSR sort gate)
QVQLQETGGGLVQAGGILGCAASGNISTRSEMGWYRQATGKEREFVATINSGGITNYADSVKGRFTISRDNAKNTVYLRMNSLKPEDTAVYYRAVYGYFSDPYDYWGQGTQVTVSS	low polyreactivity
QVQLVESGGGLVQAGGSLRLSCAASGRTFWVNAMGWYRQAPGKERELVAGITFRGGSTYYADSVKGRFTISRDNAKNTVYLQMYSLKPEDTAVYYCAADVTFVYSGRRVHYFYWGQGTQVTVSS	high polyreactivity
QVQLVESGGGLVQAGGSLRLSCAASGRTFNKYAMGWYTQAPGKERELVAAISTRGGSTYYADSVKGRFTISRDNAKNTVDLQMNSLKPEDTAVYYCAARLTTVGQGFDYWGQGTQVTVSS	high polyreactivity
QVQLVESGGGLVQAGGSLRLRCADSGRTFRYNAMGWYRQAPGKERELVAGIRWSGDRTYYADSVKGRFTISHDNAKNTVYLQMNSLKPEDTAVYSCNKVYHPGYGVRATYDYWGQGTQVTVSS	high polyreactivity
QVQLVESGGGLVQARGSLRLSCASSGSIFTDNGMGWYRQPPGKESDLVAAISWRGGTYYADSVKGRFTISRDNAKNTVYLQMNSLKPEDSAVYYSAADVLRISTRLFRGPGFDSWGQGTQVTVSS	low polyreactivity
QVQLVESGGGLVQAGGSLRLSCAASGSTFYYYAMGWYRQAPGKEREFVAAITWSGGSTYYADSVKGRFTISRDNAKNTVYLQMNSLKQEDTGVYYCAKDQRYYYYGGGDYWGQGTQLTVSS	low polyreactivity
QVQHVESGGGLVQAGGSLRLSCAASGSIFDRNAMGRYRQAPGKERELVAAISGGDSTYYADSVKGRFTISRDNAKNTVYLQMNSLKPEDTAVYYCNVDFKTEYDYWGQGTQVTVSS	low polyreactivity
QVQLVESGAGLVQAGGSLRLSCAASGRILHEYAMGWYRQAPGKERELVAAITFSGTSTYYADSVKGRFTISRDNAKNSVYLQMNSLKPEDTAVYYCAADTYGGSRDYWGQGTQVTVSS	low polyreactivity
QVQLVESGGGLVQAGGSLRLSCAASGSNFDDYVMGWYRQAPGKERELVAGINSRGTSTDYADSVKGRFTISRDNAQNTVYLQMNSLKPEDTAVYYCAADDSHGYDYWGQGTQVTVSS	low polyreactivity
QVQLVESGGGLVQAGCSLRLSCAASGRIFPRNVMGWYRQAPGKERELVAAISSRGTRTYYADSVKGRFTISRDNAKNTVYLQMNSLKPEDTAVYYCAADGPYEGYDYWGLGTQVTVSS	high polyreactivity
QVQLVESGGGLVQAGGSLRLSCAASGFIFSYYAMGWYRQAPGKERELLAAISRNGGRTYYADSVKGRFTISRDNAKNTVYLQMNSLKPEDTAVYYCAATTYRTSSYIRYGSPKHDDYWGQGTQVTVSS	high polyreactivity
QVQLVESGGGLVQAGGSLRLSCAASGSTFTFNAMGWYRQAPGKERELVAAITTSAGSTYYADSVKGRFTISRDNAKNTVYLQMNSLKPEDTAVYYCAARYVPPWGRRYYYWGQGTQVTVSS	high polyreactivity
QVQLVESGGGLVQAGGSLRLSCAASGSTFISYAMGWYRQAPGKERELVAAISSSGGSTYYADSVKGRFTISRDNAKYTVYLQMNSLKPEDTAVYYCAAESVYYRSWRYYYWGQGTQVTVSS	high polyreactivity
QVQLVESGGGLVQAGGILRLSCAASGSTFARYAMGWYRQEPGKERELVAVIRSGGSTNYADSVKGRFTISRDNAKNTVYLQMNSLKPEDTAGAADQWTIHRWATYGYWGQGTQVTVSS	low polyreactivity
QVQLEESGGGLVQAGGSLRLSCAASGSTFHGYAMGWYRQEPGKERELVAAITSGDSTNYADSVKGRFTISRDNAKNTVYLQMNSLKPEDTAVYYCNAEGSSVLTGYWGYPPYWDTYDYWGQGTQVTVSS	low polyreactivity
QVQIVESGGRLVQAGGSLRLSCAASGLTFRRYAMGWYRQAPGKERELVASITYRGGSTYYADSVKARFTISRDNAKNTVYLQINSLKPEDTAVYHCNAKGQRNKRCRGYWGQGSQVTVSS	high polyreactivity
QVQLVESGGGLVQAGGSLRLSCAASGYIFVIYAMGWYSQAPGEERELVAAISWSGDTTYYADSVKGRFTISRDNAKNTVYLQMNSLQPEDTAVFYCNAETAYYQVDYCGQGTQVTVSS	low polyreactivity
QVQLVESGGGLVQAGGSLRLSCAASGFIFGKYAMGWYRQAPGKEREFVAAITGNGGSTYYADSVKGRFTISRDYAKNTVYLQMNSLKPVDSAVYYCYADRGYRRRSGMVYWGQGTQVSVSS	low polyreactivity
QVQLVESGGGLVQAGGSLRLSCAASGIIFNRYAMGRYRQAPGKERELVASITSSGGSTHYADSVKGRFTISRDNAKNTVYLQMNSLKPEDTAVYYCAKQFPNNYRYYLHYYYWGQGTQVTVSS	low polyreactivity
QVKLEESGGGLVQAGGSLRLSCAASGFIFGSYAMGWYRQAPGKERELVAVISSSGGRTYYADSVKGRFTISRDNAKNTVYLQMNSLKPEDTAVYYCAAPWIARKYSPSEYDWGQGTQVTVSS	high polyreactivity
QVQLVESGVGLVQAGGSLRLSCAASGRTFGSNAMGWYRQAPGKERELVAAISRVGSTYYADSVKGRFTISRDNAKNTVYLQMNSLKPEDTAVYYCPYDYWGQGTQVTVSS	low polyreactivity
QDQLVESGGGLVQAGGSLRLSCAASGFTFYFYAMGWYRQAPGKERELVDAISRSGSRTYYADSVKGRFTISRDNAKNSVYLQMNILKPEDTAVYYCARVRPRGLYFVLHYDYWGQGTQVTVSS	high polyreactivity

Sequence	polyreactivity (PSR sort gate)
QVQLVESGGGLVHAGGILRLSSPASGSTIRYYAMGWYRQAPGKESQLVAVISTSGNTYYADSVKGRFTISRDNAKNTVYLQMNSLKPEDTAVYYCAARGVGGQISQEYDYWGQGTQVTVSS	low polyreactivity
QVQLVESGGGLVQAGGSLRLSCAASGRTFSSNTMGWYRQAPGKERELVAAITKSGANTYYADSVKGRFTISRDNAKNTVYLQMNSLKPEDTAVYYCAAPGKVQRYYYWGQGTQVTVSS	high polyreactivity
QVQLVETGGGLVQAGGSLRLSGAASGRIFWVNAMGWYRQAPGKERELVAVISRGGSTTYADSVKGRFTISRDNAKNTVYLKMNSLKPEDTAVYYCAADAYRHAFLYYGYDYLGQGTQVTVSS	low polyreactivity
QVQLVESGGGLVQAGGSLRLSCAASGIIFYGNAMGWYRQAPGKERELVAAITWSGGSTYYADSVKGRFTISRDNAKNTVYLQLTSLKPEDTAVYYCAADFLYGFYYWGQGTQVTVSS	low polyreactivity
QVQLVESGGGLVQAGGSLRLSCAASGRILFHYAMGWYRRAPGKERELVAAITWRGGGTHYADSVKGRFTISRDNAKNTVYLQKNSLKPEDTAVYYCNAEYNGYFSRSGFYYWGQGTQVTVSS	low polyreactivity
QVQLVESGGGLVQAGGSIRLSCAASGRTFACNSMGCYRQAPGKERELVARIRSSGSTYYADSVKGRFTISRDNAKNTVYLQMNSLKPEDTAVYYCAADIRFWYGYYYWGQGTQVTVSS	high polyreactivity
QVQLVESGGGLVQAGGSLRLSCAASGSTFYRYAKVSYRQAPGKARELVAAITRTGGSTYADSVKGRFTISRDNAKYTDYLQMKSLKPEDTAVYYCAVQRYYVSSISPFYYWGQGTQVTVSS	low polyreactivity
QVQLVESGGGLVHAGGSLRLSCAASGSTFAYNAMGWYRQAPGKERELVDAIDWSDGITYYADSVKGRFTISRDNAKNTVYLQMNSLKPEDTAVYYCAAEDGYTDSRAYGYDYWGQGTQVTVSL	low polyreactivity
QVQLVESGGGLVQAGGSLRLSCAASGFTFSRYTMGWYRQAPGKERELVAAITSSGGSTYYADSVKGRFTISRDNAKNTVYLQMNSLKPEDTAVYYCAARRRESDQRGYCGQGTQVTVSS	high polyreactivity
QVQLVESGGGLVQAGGSLRLSCAASGSIFVAYTMGWYRQAPGKERELVAAISRGGSTNYADSVKGRFTISRDNAKNTVDLQMNSLKPEDTAVYYCAAKVWDGQLLYYWGQGTQVTVSS	low polyreactivity
QVQLQESGGGMVQAGGSLRLSCAASGYISWADYMVWYRQAPGKERELVAGIGYGSTTYYADSVKGRFTISRDNAKNTAYLQMNSLKPEDTAVYYCAVGWYRDTAYKYWGQGTQVTVSS	low polyreactivity
QDQLVESGGGLVQAGGSLRLSCAASGSIFGPYAMGWYRQAPGKERELVAAITYRGDSTYYADSVKGRFTISRDYAKNTVYLQMNSLKPEDTAVYYCAAEYIYDLWEEYWGQGTQVTVSS	high polyreactivity
QVQLVESGGGLVQAGGSLRLSCAASGRTFVSNAMGWYRQAPGKERELVAAISSSGGSTYYADSVKGRFTISRDNAKNTVYLQMNSLKPEDTAVYYCATYPWYSKYRYDHWGQGTQVTVSS	high polyreactivity
QVQLVESGGGLVQAGGSLRLSCAASGRTFDAYAMGWYRQAPGKERELVAAISSGGSTNYADSVKGRFTISRDHAKNTVYLQMNSLKPEDTAVYYCAAEYIQYLFYSVRVAYDYWGQGTQVTVSS	low polyreactivity
QVQLVESGGGVVQAGGSLRLSCAASGFTYVYNAIGWYRQAPGKDMELVATISWRGGSTYADSVKGRFTISRDNAKNTVYLQINSRKPEDTAIYYCNAASRVSQAMDYWGQGTQVTVSS	high polyreactivity
QVQLVESGAGLVQAGGSLRLRCAASGYTLGPYAMGWYRPAPGKERELVAAISWGGGRTYYADSVKGRFTISRDNAKNTVYLQMNSLKPEDTAVYDCAAKWSHVRDGPKYDYWGQGTQVTVSS	low polyreactivity
QVQLVESGGGLVQAGGSLRLSCAASGRTFWGYALGWYRQAPGKERELVAAISSGGETTYADSVKGRFTISRDNAKNTVYLQMNSMKPEDTAVYYCAADRWITVYILGADGYDYWGQGTQVTVSS	low polyreactivity
QVQLVESGGGLVQAGGSLRLSCAASGLTFIYYAMGWYRQAPGKERELVAAISVSGGSTYYADSVKGRFTISRDNAKNTVYLQMNSLKPEDTAVYYCAADWFVHKPRYQYSFDYWGQGTQVTVSS	low polyreactivity
QVQLVESGGGLVHAGGSLRLSCAASGFIFSSYAMGWYRPAPGKERELVAAITSRGGSTYYADSVKGRYTISRDNAKNTVYLQMNSLKPEDTAVYYCAADQGVPSTYDYWGQGTQVTVSS	low polyreactivity
QVQLVESGGGLVQAGGSLRLSCAASGRTFRLFAMGWYRQAPGKERELVAAIRSGGNTNYADSVKGRFTISRDNAKNTVYLQMNSLKPEDTAVYYCAATTYVVASRYVGSLGDDYWGHGTQVTVSS	high polyreactivity
QVQLVESGGGLVQAGGSPRLSCAASGFTFYLYAMGWYRQAPGKERELVAAITRVGSTYYADSVKGRFTISRDNAKNTVYLQMNSLKPEDSAVYYCATDLSQVGFDYWGQGTQVSVSS	high polyreactivity
